Measured values taken from patent publication US20190360025A1.

Assays:
[1] = molecular target: vascular endothelial growth factor (VEGF), R&D Systems 293-VE-010 (human) (UniProt P15692); experiment: SPR (Biacore T200), biotinylated antibody on CAP chip, 1:1 fit
[2] = molecular target: vascular endothelial growth factor (VEGF), R&D Systems 293-VE-010 (human) (UniProt P15692); experiment: c-PLA with preamplification; VEGF 1.00E-11 M
[3] = molecular target: vascular endothelial growth factor (VEGF), R&D Systems 293-VE-010 (human) (UniProt P15692); experiment: t-PLA, buffer; VEGF 1.00E-12 M
[4] = molecular target: vascular endothelial growth factor (VEGF), R&D Systems 293-VE-010 (human) (UniProt P15692); experiment: c-PLA, buffer; VEGF 1.00E-08 M
[5] = molecular target: vascular endothelial growth factor (VEGF), R&D Systems 293-VE-010 (human) (UniProt P15692); experiment: c-PLA, buffer; VEGF 1.00E-12 M
[6] = molecular target: vascular endothelial growth factor (VEGF), R&D Systems 293-VE-010 (human) (UniProt P15692); experiment: c-PLA, chicken plasma; VEGF 1.00E-08 M
[7] = molecular target: vascular endothelial growth factor (VEGF), R&D Systems 293-VE-010 (human) (UniProt P15692); experiment: c-PLA with preamplification; VEGF 1.00E-09 M
[8] = molecular target: vascular endothelial growth factor (VEGF), R&D Systems 293-VE-010 (human) (UniProt P15692); experiment: t-PLA, human plasma; VEGF 1.00E-11 M
[9] = molecular target: vascular endothelial growth factor (VEGF), R&D Systems 293-VE-010 (human) (UniProt P15692); experiment: c-PLA, chicken plasma; VEGF 1.00E-09 M
[10] = molecular target: vascular endothelial growth factor (VEGF), R&D Systems 293-VE-010 (human) (UniProt P15692); experiment: SPR, isoaffinity graph
[11] = molecular target: vascular endothelial growth factor (VEGF), R&D Systems 293-VE-010 (human) (UniProt P15692); experiment: t-PLA, chicken plasma; VEGF 1.00E-12 M
[12] = molecular target: vascular endothelial growth factor (VEGF), R&D Systems 293-VE-010 (human) (UniProt P15692); experiment: t-PLA with preamplification; VEGF 1.00E-11 M
[13] = molecular target: vascular endothelial growth factor (VEGF), R&D Systems 293-VE-010 (human) (UniProt P15692); experiment: t-PLA, human plasma; VEGF 1.00E-14 M
[14] = molecular target: vascular endothelial growth factor (VEGF), R&D Systems 293-VE-010 (human) (UniProt P15692); experiment: c-PLA, chicken plasma; VEGF 1.00E-13 M
[15] = molecular target: vascular endothelial growth factor (VEGF), R&D Systems 293-VE-010 (human) (UniProt P15692); experiment: c-PLA, buffer; VEGF 1.00E-14 M
[16] = molecular target: tumor necrosis factor alpha (TNF-α), R&D Systems 210-TA-005 (UniProt P01375); experiment: c-PLA 1X probes, human plasma; TNF-α 1.00E-12 M
UniProt P01375, sequence (P01375 77-233 limits assumed): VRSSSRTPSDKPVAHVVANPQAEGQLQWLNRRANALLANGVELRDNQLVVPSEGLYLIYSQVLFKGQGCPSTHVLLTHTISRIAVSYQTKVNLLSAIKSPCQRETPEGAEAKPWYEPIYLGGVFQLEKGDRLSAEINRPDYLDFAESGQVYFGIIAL

[17] = molecular target: tumor necrosis factor alpha (TNF-α), R&D Systems 210-TA-005 (UniProt P01375); experiment: SPR (Biacore T200), biotinylated antibody on CAP chip, 1:1 fit
[18] = molecular target: tumor necrosis factor alpha (TNF-α), R&D Systems 210-TA-005 (UniProt P01375); experiment: t-PLA 10X probes, human plasma; TNF-α 1.00E-11 M
[19] = molecular target: tumor necrosis factor alpha (TNF-α), R&D Systems 210-TA-005 (UniProt P01375); experiment: t-PLA 1X probes, buffer; TNF-α 5.00E-07 M
[20] = molecular target: tumor necrosis factor alpha (TNF-α), R&D Systems 210-TA-005 (UniProt P01375); experiment: t-PLA 10X probes, buffer; TNF-α 1.00E-09 M
[21] = molecular target: tumor necrosis factor alpha (TNF-α), R&D Systems 210-TA-005 (UniProt P01375); experiment: t-PLA 10X probes, human plasma; TNF-α 1.00E-13 M
[22] = molecular target: tumor necrosis factor alpha (TNF-α), R&D Systems 210-TA-005 (UniProt P01375); experiment: c-PLA 1X probes, buffer; TNF-α 1.00E-08 M
[23] = molecular target: tumor necrosis factor alpha (TNF-α), R&D Systems 210-TA-005 (UniProt P01375); experiment: c-PLA, buffer; TNF-α 1.00E-12 M
[24] = molecular target: tumor necrosis factor alpha (TNF-α), R&D Systems 210-TA-005 (UniProt P01375); experiment: t-PLA 10X probes, human plasma; TNF-α 1.00E-09 M
[25] = molecular target: tumor necrosis factor alpha (TNF-α), R&D Systems 210-TA-005 (UniProt P01375); experiment: c-PLA, buffer; TNF-α 1.00E-09 M
[26] = molecular target: tumor necrosis factor alpha (TNF-α), R&D Systems 210-TA-005 (UniProt P01375); experiment: t-PLA, buffer; TNF-α 1.00E-08 M
[27] = molecular target: tumor necrosis factor alpha (TNF-α), R&D Systems 210-TA-005 (UniProt P01375); experiment: c-PLA 1X probes, human plasma; TNF-α 1.00E-11 M
[28] = molecular target: tumor necrosis factor alpha (TNF-α), R&D Systems 210-TA-005 (UniProt P01375); experiment: t-PLA 10X probes, human plasma; TNF-α 5.00E-07 M
[29] = molecular target: tumor necrosis factor alpha (TNF-α), R&D Systems 210-TA-005 (UniProt P01375); experiment: c-PLA 1X probes, human plasma; TNF-α 5.00E-07 M

UniProt P15692, sequence (P15692 other isoform, or with tags, fused parts or gaps limits assumed): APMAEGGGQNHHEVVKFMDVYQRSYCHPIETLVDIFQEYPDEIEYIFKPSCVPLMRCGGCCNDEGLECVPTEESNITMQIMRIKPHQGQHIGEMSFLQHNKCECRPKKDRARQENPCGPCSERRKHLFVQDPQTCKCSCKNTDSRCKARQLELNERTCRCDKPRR

In the case of “affinity-purified polyclonal anti-VEGF antibody (R&D Systems AF-293-NA)”, the Kd [1] is reported as 3.6 pM, the Counts [2] is reported as 4.88e+06 and the SBR [2] is reported as 82. It also gave a Counts [3] of 3.69e+06, an SBR [3] of 11 and a Counts [4] of 483000. For the same substance, the SBR [4] was 16300, the Counts [5] was 619 and the SBR [5] was 21. It also gave a Counts [6] of 40800, an SBR [6] of 4420 and a Counts [7] of 2.36e+08. It also gave an SBR [7] of 3970, a Counts [8] of 7.15e+06 and a Counts [9] of 73600. It also gave an SBR [9] of 7980, a Kd [10] of less than 5 pM and a Counts [11] of 787000. It also gave an SBR [11] of 12, a Counts [12] of 1.26e+07 and an SBR [12] of 71. It also gave a Counts [13] of 1.63e+06, a Counts [14] of 29 and an SBR [14] of 3.1. For the same substance, the Counts [15] was 203 and the SBR [15] was 6.8.
For “affinity-purified polyclonal anti-TNF-α antibody (R&D Systems AF-210-NA)”, the Counts [16] was 75.9, the Kd [17] was 280 pM and the Counts [18] was 4.13e+06. For the same substance, the Counts [19] was 1.33e+08, the Counts [20] was 3.2e+08 and the SBR [20] was 56. The Counts [21] was 1.36e+07, the SBR [21] was 1.2 and the Counts [22] was 11600. The SBR [22] was 730, the Counts [23] was 4.62 and the Counts [24] was 8.87e+07. For the same substance, the SBR [24] was 7.8, the Counts [25] was 3700 and the SBR [25] was 328. It also gave a Counts [26] of 5.4e+07, an SBR [26] of 317 and a Counts [27] of 105. It also gave an SBR [27] of 1.4, a Counts [28] of 2.25e+09 and an SBR [28] of 198. For the same substance, the Counts [29] was 28800 and the SBR [29] was 383.
